These results are taken from US20230235048A1 (PROTHENA BIOSCIENCES, published 2023).

For experiment [1], the target named is T1, human sortilin on the cell surface (recombinant huSortilin on HEK 293 cells; endogenous on U251MG cells) (human, UniProt Q99523 78-831).
T1 construct: whole, on cells; also called huSortilin expressing HEK293 cells; cell surface huSortilin
T1 sequence (looked up): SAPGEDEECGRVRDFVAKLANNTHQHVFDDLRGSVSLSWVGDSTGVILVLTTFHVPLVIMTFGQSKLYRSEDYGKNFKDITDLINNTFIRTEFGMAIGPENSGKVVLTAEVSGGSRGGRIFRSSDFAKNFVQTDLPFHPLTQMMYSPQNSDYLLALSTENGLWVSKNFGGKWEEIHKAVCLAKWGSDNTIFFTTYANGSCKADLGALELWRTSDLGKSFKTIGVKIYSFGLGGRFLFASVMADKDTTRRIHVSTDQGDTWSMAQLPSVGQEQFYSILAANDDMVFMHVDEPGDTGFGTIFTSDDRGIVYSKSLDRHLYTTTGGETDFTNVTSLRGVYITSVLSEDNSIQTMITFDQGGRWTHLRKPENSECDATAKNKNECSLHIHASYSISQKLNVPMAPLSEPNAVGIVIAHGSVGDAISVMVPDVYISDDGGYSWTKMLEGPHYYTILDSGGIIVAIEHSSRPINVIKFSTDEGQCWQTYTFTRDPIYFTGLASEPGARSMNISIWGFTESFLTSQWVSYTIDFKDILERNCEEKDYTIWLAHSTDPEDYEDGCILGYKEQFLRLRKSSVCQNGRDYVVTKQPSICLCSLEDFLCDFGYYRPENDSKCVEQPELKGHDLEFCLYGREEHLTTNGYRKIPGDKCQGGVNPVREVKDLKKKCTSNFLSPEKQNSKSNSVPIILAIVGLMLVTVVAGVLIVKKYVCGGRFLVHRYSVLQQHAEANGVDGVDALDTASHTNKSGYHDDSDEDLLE
Description: cell-based blocking titration (flow cytometry), huSortilin HEK293 cells; blocked ligand 30 nM huPGRN-Biotin. The procedure:
Cells were cultured using standard methods. […] Cells were then washed twice in PBS+2% FBS and incubated for 30 minutes on ice with 50 uL per well 1:200 Steptavidin-APC (BD biosciences) in PBS+2% FBS. Cells were then washed as above and resuspended in 100 uL PBS+2% FBS. Data was acquired using the BD LSR II and analyzed using FlowJo software version 10.6 and Microsoft excel.
The cell-based blocking assay was repeated with the top 12 blocking mAbs using a dose titration from 67 nM to 0.4 nM. Blocking assay was carried out as above. Data was analyzed using FlowJo software version 10.6. and GraphPad Prism software.

Experiment [2] deals with T2, extracellular domain (ECD) of recombinant human Sortilin with a C-terminal HIS tag (ECD-huSortilin-HIS) (human, UniProt Q99523 78-755).
T2 construct: Bought (R&D Systems); also called human sortilin-ECD; not shown: C-terminal HIS tag
T2 sequence: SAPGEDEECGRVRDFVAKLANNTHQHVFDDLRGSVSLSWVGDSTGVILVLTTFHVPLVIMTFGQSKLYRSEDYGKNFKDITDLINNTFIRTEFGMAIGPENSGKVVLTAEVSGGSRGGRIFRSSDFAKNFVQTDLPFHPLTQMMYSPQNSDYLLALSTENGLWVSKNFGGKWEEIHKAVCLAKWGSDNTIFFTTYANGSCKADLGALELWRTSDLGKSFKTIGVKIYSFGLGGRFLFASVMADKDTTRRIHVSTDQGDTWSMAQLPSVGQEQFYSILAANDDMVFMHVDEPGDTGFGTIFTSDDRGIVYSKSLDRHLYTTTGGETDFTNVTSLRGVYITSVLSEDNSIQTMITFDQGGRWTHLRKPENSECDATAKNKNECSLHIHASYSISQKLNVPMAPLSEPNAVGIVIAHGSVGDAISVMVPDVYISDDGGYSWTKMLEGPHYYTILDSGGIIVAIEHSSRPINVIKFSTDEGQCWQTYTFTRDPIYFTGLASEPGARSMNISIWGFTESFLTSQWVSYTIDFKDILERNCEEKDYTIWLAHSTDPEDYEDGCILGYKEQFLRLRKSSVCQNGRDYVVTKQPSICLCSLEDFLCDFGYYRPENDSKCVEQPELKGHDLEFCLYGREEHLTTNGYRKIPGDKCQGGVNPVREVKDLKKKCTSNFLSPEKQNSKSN
Description: blocking ELISA, coated ECD-huSortilin-HIS; blocked ligand huPGRN-Biotin.

The target in experiment [3] is T2, extracellular domain (ECD) of …. Description: blocking ELISA, coated ECD-huSortilin-HIS, purified mAb; blocked ligand huPGRN-Biotin.
Experiment [4] has the same target. Description: SPR (Biacore T200), mAb captured by anti-mouse antibody on CM5, Sortilin 0.1-300 nM as analyte, global 1:1 fit. The procedure:
Analysis was performed using a Biacore T200 to compare the binding affinity of murine anti-huSortilin antibodies to recombinant human Sortilin. Anti-mouse antibody was immobilized on sensor chip CM5 (GE Healthcare Life Sciences) via amine coupling, and mouse antibodies (ligand) were captured to a level to ensure a maximum binding of analyte of 50 RU (approximately 100RU of ligand binding). Various concentrations of Sortilin (ranging from 0.1 nM to 300 nM) were passed over the captured ligand at […] in running buffer (HBS+0.05% P-20, 1 mg/mL BSA) for 180-300s association time and 300-900s dissociation time. Regeneration of the chip surface was accomplished by 2 short injections of 10 mM Glycine-HCl at pH 1.7. Data was blank subtracted to both a sensor not containing ligand and 0 nM analyte concentration. Analysis was performed using a global 1:1 fit with Biacore Insight Evaluation software (v2.0) with bulk refractive index set to zero RU.

The target is the same in experiment [5]. Description: ELISA, Ab binding to hSortilin-ECD. The method, then: Purified anti-huSortilin mAb binding to huSortilin was characterized by ELISA (ELISA protocol as in Example 1) using a 12 point titration of mAb concentration. mAbs were diluted 2-fold from a starting concentration of 67 nM and then added to ECD-huSortilin-HIS coated plates. Data was analyzed and EC₅₀ (nM) was calculated using graphed Prism. Commercially available goat anti-huSortilin (R&D Biosystems) was used as a positive control. Results are depicted in FIG. 8.

Experiment [6] deals with T3, sortilin array peptides with the consensus motif RTEFGMAIGP (human, not fully specified; array peptides cyclized via a thioether linkage between a C-terminal cysteine and a modified N-terminus).
T3 construct: Consensus motif of overlapping 7, 10 and 13 amino acid conformational microarray peptides
T3 peptide: RTEFGMAIGP
Description: PEPperMAP conformational (cyclized) peptide microarray, mAb 10-100 ug/mL.

B1: mouse monoclonal antibody 6B15 (antibody, mouse IgG1, V domains shown)
VH: EVQLVESGGDLVKPGGSLKLSCAAPGFTFSTYGMSWVRQTPDKRLEWVAIISSGGSYTYYSDTVKGRFTISRDNAKNTLNLQMSSLKSEDTAMYFCSRSSSHWYFDVWGTGTTVTVSS
VL: DILMTQFPSSMSVSLGDTVSITCHASQGISSNIGWLQQKPGKSFKGLIYHGTNLKDGVPSRFSGSGSGTDFSLTISSLESEDFADYYCVQYAQFPYTFGGGTKLEKR
notes: mouse IgG1, kappa
B1: the “% Max blocking at 11nM mAb” value in experiment [1] was found to be 33%. The “% Blocking at 7.4nM mAb” value in experiment [2] came out at 51%. In experiment [3], the “IC50 (read off the curve)” value was ~5 nM. Moreover, in experiment [4], the Kd amounted to 1.02 nM. In experiment [5], the EC50 was determined as 3.8 nM.

B2: mouse monoclonal antibody 8H24 (antibody, mouse IgG2c, V domains shown)
VH: QAYLQQSGTELVRPGASVKMSCKASGYTFTSYSMHWVKQTPRQGLEWIGAIYPGNDATSYNQKFKGKATLTVDKSSSTAYMQLSSLTSEDSAVYFCAREGYYGSSFEAWFASWGQGTLVTVSA
VL: DVLMTQTPLSLPVSLGDQASISCRSSQSIVHSNGNTYLEWYLQKPGQSPKLLIYKVSNRFSGVPDRFSGSGSGTDFTLKISRVEAEDLGVYYCFQGSHVLPTFGGGTKLEIK
notes: mouse IgG2c, kappa; also called mu8H24; m8H24
Consider B2, for which, in experiment [1], the “% Max blocking at 11nM mAb” value was 66%. For the same molecule, the “% Blocking at 7.4nM mAb” value in experiment [2] came to 89%. Further, the Kd in experiment [4] was found to be 4.56 nM. In addition, the EC50 in experiment [5] worked out at 0.4 nM. Also, the binding result in experiment [6] is “binds”.
